Results from the supplement of paper PMC10065799, “High-throughput profiling of sequence recognition by tyrosine kinases and SH2 domains using bacterial peptide display” (eLife, 2023).

Key:
SHP2-C SH2 = test: SH2 binding enrichment of the phosphorylated peptide, bacterial display (enrichment ratio); higher = better substrate or ligand; peptides without Tyr show the background
c-Src SH2 = test: as above
Grb2 SH2 = Grb2 SH2 (UniProt P62993); test: as above
Fes = Fes (UniProt P07332); test: phosphorylation enrichment, bacterial display (enrichment ratio); higher = better substrate or ligand; peptides without Tyr show the background
EPHB1 = EPHB1 (UniProt P54762); test: as above
EPHB2 = EPHB2 (UniProt P29323); test: as above
FGFR3 = FGFR3 (UniProt P22607); test: as above
Hck = Hck (UniProt P08631); test: as above
Fyn = Fyn (UniProt P06241); test: as above
AncSZ = test: as above
c-Src = test: as above
c-Abl (mouse) = test: as above
MERTK = MERTK (UniProt Q12866); test: as above
FGFR1 = FGFR1 (UniProt P11362); test: as above
Fer (mouse) = test: as above
Jak2 = Jak2 (UniProt O60674); test: as above
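Wherever SH2 binding enrichment of the phosphorylated peptide, bacterial display is given: peptide library displayed on the E. coli surface as eCPX fusions, selected cells deep-sequenced, score is each peptide's frequency after selection divided by its frequency in the input.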
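Wherever phosphorylation enrichment, bacterial display is given: 11-residue human phosphosite peptides and single-mutation variants displayed on the E. coli surface, counted by deep sequencing, each peptide's frequency after selection divided by its frequency in the unselected input library; frequency after pTyr selection over input frequency; kinase dosed for 20-30% of maximal phosphorylation in three min.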

Sequence of Fyn (P06241 whole entry, looked up): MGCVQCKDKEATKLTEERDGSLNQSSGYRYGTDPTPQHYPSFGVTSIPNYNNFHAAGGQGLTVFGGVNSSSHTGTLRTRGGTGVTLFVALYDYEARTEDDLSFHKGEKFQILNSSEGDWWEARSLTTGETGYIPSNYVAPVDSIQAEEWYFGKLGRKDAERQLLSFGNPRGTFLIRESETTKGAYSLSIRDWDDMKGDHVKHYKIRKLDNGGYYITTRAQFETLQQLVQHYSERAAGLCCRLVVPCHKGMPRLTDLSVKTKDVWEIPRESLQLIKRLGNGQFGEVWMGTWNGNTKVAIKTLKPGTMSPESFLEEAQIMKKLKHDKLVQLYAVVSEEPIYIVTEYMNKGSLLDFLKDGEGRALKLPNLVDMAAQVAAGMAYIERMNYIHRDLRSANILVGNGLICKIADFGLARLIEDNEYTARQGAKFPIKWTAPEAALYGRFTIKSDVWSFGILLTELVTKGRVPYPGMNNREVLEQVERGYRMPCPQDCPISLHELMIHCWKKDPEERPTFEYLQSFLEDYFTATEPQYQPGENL
Sequence of Fes (P07332 whole entry, looked up): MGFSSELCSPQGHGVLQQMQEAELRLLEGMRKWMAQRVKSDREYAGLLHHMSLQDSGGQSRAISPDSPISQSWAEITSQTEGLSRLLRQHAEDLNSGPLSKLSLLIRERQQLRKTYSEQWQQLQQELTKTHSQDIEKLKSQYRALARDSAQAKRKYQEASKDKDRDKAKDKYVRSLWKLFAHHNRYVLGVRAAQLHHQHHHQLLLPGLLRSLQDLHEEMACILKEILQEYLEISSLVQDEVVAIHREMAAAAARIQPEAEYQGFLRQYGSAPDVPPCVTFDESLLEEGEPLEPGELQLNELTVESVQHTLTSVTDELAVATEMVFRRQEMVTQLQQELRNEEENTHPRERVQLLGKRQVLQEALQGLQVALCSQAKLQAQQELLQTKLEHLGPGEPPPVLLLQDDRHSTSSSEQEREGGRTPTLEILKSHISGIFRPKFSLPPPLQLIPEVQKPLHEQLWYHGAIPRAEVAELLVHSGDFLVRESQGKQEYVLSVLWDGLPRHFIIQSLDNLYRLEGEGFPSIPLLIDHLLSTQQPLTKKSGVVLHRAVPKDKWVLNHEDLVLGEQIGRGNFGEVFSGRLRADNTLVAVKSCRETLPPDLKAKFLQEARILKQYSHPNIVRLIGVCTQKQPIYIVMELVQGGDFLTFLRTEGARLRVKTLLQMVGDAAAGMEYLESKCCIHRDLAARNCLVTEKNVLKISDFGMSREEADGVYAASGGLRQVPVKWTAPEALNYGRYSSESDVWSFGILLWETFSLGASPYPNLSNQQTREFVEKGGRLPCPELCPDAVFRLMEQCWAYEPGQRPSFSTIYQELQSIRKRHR
Sequence of FGFR3 (P22607 whole entry, looked up): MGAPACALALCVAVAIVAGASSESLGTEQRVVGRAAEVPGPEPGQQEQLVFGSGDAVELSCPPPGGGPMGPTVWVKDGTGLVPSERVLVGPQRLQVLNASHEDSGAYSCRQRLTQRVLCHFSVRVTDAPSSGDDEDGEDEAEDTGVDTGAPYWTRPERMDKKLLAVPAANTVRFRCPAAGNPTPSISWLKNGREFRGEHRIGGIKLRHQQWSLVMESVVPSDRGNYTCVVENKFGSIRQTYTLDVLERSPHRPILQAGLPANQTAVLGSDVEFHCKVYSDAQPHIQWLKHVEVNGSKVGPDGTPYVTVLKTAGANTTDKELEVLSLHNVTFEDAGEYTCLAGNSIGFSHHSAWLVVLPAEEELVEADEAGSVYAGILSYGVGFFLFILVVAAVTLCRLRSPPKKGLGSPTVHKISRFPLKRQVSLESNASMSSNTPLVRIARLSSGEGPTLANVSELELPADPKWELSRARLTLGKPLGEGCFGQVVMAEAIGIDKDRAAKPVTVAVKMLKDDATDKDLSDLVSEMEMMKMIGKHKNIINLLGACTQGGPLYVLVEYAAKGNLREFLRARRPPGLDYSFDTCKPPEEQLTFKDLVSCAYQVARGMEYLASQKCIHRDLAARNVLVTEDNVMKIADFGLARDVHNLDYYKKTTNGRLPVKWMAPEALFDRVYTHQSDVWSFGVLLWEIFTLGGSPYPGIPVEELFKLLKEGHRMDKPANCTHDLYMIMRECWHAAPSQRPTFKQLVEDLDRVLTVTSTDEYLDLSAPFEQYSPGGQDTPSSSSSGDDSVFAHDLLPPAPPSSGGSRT
Sequence of FGFR1 (P11362 whole entry, looked up): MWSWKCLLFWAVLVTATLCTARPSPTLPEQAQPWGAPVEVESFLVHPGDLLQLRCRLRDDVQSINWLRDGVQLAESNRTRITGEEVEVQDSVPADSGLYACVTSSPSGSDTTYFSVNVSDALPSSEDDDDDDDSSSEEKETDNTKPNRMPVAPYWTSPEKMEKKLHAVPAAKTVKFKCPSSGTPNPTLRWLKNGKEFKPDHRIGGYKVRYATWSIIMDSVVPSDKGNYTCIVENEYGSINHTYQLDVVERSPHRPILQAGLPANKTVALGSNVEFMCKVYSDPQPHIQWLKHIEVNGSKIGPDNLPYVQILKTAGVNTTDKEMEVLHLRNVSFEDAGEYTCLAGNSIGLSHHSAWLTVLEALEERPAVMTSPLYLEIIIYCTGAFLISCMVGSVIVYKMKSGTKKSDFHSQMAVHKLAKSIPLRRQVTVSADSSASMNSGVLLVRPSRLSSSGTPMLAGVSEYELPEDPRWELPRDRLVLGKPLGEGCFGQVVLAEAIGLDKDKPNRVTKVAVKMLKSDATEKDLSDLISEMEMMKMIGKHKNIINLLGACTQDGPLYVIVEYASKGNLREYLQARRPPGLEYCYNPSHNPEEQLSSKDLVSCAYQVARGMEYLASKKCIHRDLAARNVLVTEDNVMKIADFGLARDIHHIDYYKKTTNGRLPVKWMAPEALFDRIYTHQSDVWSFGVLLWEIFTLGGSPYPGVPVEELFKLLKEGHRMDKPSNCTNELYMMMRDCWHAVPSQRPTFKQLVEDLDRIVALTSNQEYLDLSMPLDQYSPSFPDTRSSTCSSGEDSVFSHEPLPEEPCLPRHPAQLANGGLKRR
Sequence of Jak2 (O60674 whole entry, looked up, the tested form may be a part): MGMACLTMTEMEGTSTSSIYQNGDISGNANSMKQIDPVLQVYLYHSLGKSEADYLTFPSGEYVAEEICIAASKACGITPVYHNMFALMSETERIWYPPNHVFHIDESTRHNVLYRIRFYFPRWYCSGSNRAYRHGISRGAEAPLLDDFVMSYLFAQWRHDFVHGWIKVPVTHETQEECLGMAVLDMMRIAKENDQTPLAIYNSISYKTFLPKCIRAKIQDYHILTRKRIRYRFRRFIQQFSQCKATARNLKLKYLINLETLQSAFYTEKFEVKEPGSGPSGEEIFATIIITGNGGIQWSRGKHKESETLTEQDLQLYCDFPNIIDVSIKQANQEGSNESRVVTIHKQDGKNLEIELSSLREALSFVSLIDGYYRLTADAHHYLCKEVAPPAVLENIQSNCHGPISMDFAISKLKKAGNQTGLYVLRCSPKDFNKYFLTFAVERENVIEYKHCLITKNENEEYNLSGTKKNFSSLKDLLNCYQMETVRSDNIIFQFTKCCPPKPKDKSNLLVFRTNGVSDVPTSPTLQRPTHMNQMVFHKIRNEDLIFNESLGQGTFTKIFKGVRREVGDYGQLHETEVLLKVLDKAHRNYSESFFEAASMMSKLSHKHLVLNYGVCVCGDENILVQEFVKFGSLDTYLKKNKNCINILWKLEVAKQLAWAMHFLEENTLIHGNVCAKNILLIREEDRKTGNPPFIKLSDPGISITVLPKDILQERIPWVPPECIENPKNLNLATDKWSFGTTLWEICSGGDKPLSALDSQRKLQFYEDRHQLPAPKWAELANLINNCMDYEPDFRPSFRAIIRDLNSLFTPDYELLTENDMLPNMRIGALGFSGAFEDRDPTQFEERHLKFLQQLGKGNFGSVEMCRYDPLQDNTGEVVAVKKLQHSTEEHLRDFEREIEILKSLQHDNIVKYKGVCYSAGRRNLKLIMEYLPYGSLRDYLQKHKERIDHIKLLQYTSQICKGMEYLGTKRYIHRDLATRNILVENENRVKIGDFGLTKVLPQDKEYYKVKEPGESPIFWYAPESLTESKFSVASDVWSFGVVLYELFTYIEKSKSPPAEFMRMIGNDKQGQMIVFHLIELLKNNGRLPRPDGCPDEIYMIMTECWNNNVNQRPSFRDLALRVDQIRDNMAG
Sequence of Hck (P08631 whole entry, looked up): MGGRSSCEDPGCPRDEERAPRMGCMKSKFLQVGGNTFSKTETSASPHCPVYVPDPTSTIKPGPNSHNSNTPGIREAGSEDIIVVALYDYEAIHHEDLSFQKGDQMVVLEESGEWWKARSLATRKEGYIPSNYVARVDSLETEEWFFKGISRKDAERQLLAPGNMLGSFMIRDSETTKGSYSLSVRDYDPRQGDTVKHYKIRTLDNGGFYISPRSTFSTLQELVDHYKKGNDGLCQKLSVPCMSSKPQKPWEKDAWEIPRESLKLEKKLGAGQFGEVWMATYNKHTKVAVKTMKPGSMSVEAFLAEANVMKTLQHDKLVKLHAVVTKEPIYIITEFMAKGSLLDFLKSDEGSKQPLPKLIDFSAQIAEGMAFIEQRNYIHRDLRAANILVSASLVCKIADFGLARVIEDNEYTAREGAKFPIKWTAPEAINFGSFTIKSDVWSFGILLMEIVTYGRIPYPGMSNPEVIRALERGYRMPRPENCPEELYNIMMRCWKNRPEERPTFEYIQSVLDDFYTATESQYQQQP

Sequence	SH2 binding enrichment (SHP2-C SH2)	SH2 binding enrichment (c-Src SH2)	SH2 binding enrichment (Grb2 SH2)	phosphorylation enrichment (Fes)	phosphorylation enrichment (EPHB1)	phosphorylation enrichment (EPHB2)	phosphorylation enrichment (FGFR3)	phosphorylation enrichment (Hck)	phosphorylation enrichment (Fyn)	phosphorylation enrichment (AncSZ)	phosphorylation enrichment (c-Src)	phosphorylation enrichment (c-Abl (mouse))	phosphorylation enrichment (MERTK)	phosphorylation enrichment (FGFR1)	phosphorylation enrichment (Fer (mouse))	phosphorylation enrichment (Jak2)
LDPMVYMNDTS [PTK2B_Y834_K838T]	0.668	1.05	3.37	1.11	0.494	0.734	0.708	0.728	0.588	0.958	0.811	1.32	0.7	0.64	0.787	1.48
LDTSQYFRLFN [CPT2_Y217_M214T]	1.98	0.472	0.96	0.784	0.673	0.522	1.36	0.61	0.413	0.824	0.535	0.617	0.532	1.47	0.498	4.85
LEAFQYIGESQ [MSH2_Y856_E853A]	0.682	0.506	0.979	1.58	0.711	0.585	0.938	0.413	0.625	1.21	0.659	0.906	0.479	0.614	0.505	1.46
LEEFQYIGESQ [MSH2_Y856]	0.688	0.535	0.842	1.62	1.03	1.19	1.11	0.558	0.722	2.09	0.882	1.25	0.61	0.733	0.918	2.43
LEKRAYICAHP [ACAD9_Y611]	0.889	0.442	0.8	0.969	0.535	0.455	0.616	0.476	0.457	0.943	0.462	0.638	0.479	0.506	0.456	0.818
LFIDSYEKDVA [PGM1_Y521_YF]	0.728	0.787	0.835	2.05	1.34	0.755	1.48	0.816	1.41	2.09	0.694	1.36	0.848	0.855	0.767	1.22
LFMGDYVGRGF [PPP2CA_Y86_D88G_YF]	0.817	0.487	1.01	1.04	2.4	1.48	0.739	1.53	1.5	1.38	2.31	1.1	0.456	0.919	0.412	3.61
LGGAMYFLEAE [PKHD1_Y452_YF]	0.75	0.802	0.868	1.8	0.999	0.984	1.51	1.07	1.13	1.53	1.01	0.784	0.709	0.62	0.623	1.34
LGGSPYPRVPV [FGFR1_Y701_G703R]	0.836	0.469	0.784	0.55	0.356	0.426	0.471	0.412	0.429	0.435	0.426	0.483	0.4	0.47	0.444	0.507
LGPDGYSTVDR [ARVCF_Y901]	1.18	29.2	0.927	1.31	0.318	0.594	0.81	0.405	0.679	2.11	0.395	0.909	0.553	0.617	0.709	1.01
LGPSDYFGEIV [PRKAR1A_Y323_A328V]	0.738	0.654	1.03	0.913	0.717	0.722	1.42	0.577	0.655	1.41	0.781	0.746	0.529	1.49	0.586	1.06

More lines, main results first:

SH2 binding enrichment (SHP2-C SH2)	SH2 binding enrichment (c-Src SH2)	SH2 binding enrichment (Grb2 SH2)	Sequence	phosphorylation enrichment (Fes)	phosphorylation enrichment (EPHB1)	phosphorylation enrichment (EPHB2)	phosphorylation enrichment (FGFR3)	phosphorylation enrichment (Hck)	phosphorylation enrichment (Fyn)	phosphorylation enrichment (AncSZ)	phosphorylation enrichment (c-Src)	phosphorylation enrichment (c-Abl (mouse))	phosphorylation enrichment (MERTK)	phosphorylation enrichment (FGFR1)	phosphorylation enrichment (Fer (mouse))	phosphorylation enrichment (Jak2)
3.49	1.26	0.911	LEAVSYSSPFA [RNLS_Y190_R193P_YF]	1.06	0.736	0.908	0.661	0.615	0.791	1.23	0.652	2.62	0.658	1.12	0.396	0.952
1.38	0.967	1.02	LEDEVCAQKMK [TPM2_Y261_Y261C]	2.03	1.07	0.963	1.16	0.832	1.01	1.6	0.573	1.2	0.848	0.79	1.01	1.44
0.475	1.67	0.863	LEDPMYDIIRD [RP9_Y142_H137L]	2.32	4.98	6.72	1.29	7.93	7.34	3.53	7.86	4.38	7.83	1.14	6.19	2.7
1.62	1.33	1.48	LFCLHYFHRTF [SRD5A2_Y91_V89L]	1.93	0.9	0.541	1.46	0.494	1.07	1.85	0.879	1.21	0.66	0.71	0.888	1.78
1.08	0.918	1.3	LFCVHYFHRTF [SRD5A2_Y91]	2.73	1.26	1.24	1.97	1.16	1.04	2.32	1.14	2.35	0.989	1.04	1.47	2.73
